Assay results taken from patent US20220298218A1 (ANTAG THERAPEUTICS, published 2022).
Where no end group is shown, it is not given here. The star is where a group is joined. C16 diacid = O=C(O)CCCCCCCCCCCCCCC(=O)*

T1: human GIP receptor (human, UniProt P48546 22-466)
T1 sequence (looked up): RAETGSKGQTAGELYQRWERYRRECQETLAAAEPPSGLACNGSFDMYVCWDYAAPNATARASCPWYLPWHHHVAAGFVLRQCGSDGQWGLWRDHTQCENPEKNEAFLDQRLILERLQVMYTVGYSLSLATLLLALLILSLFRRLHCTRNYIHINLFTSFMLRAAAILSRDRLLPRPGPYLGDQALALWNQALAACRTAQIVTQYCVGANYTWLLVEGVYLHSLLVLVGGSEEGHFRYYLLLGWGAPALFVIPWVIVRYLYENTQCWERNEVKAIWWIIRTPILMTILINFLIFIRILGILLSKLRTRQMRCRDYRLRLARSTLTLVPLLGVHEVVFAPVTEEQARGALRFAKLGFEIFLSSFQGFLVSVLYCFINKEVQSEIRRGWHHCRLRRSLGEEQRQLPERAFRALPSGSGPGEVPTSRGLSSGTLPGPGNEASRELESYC

B1: AT619 (peptide)
peptide: EGTFISDYSIALDKIKQQDFVNWLLAQKPSSGAPPPS
modifications: Nle at 14; K18: C16-diacid; C-term COOH
B2: AT618 (peptide)
peptide: EGTFISDYSIALDKIK(C16 diacid)QQDFVNWLLAQKPSSGAPPPS-OH
modifications: N-terminus assumed
SMILES: CC[C@H](C)[C@H](NC(=O)[C@H](CO)NC(=O)[C@H](Cc1ccc(O)cc1)NC(=O)[C@H](CC(=O)O)NC(=O)[C@H](CO)NC(=O)[C@@H](NC(=O)[C@H](Cc1ccccc1)NC(=O)[C@@H](NC(=O)CNC(=O)[C@@H](N)CCC(=O)O)[C@@H](C)O)[C@@H](C)CC)C(=O)N[C@@H](C)C(=O)N[C@@H](CC(C)C)C(=O)N[C@@H](CC(=O)O)C(=O)N[C@@H](CCCCN)C(=O)N[C@H](C(=O)N[C@@H](CCCCNC(=O)CCCCCCCCCCCCCCC(=O)O)C(=O)N[C@@H](CCC(N)=O)C(=O)N[C@@H](CCC(N)=O)C(=O)N[C@@H](CC(=O)O)C(=O)N[C@@H](Cc1ccccc1)C(=O)N[C@H](C(=O)N[C@@H](CC(N)=O)C(=O)N[C@@H](Cc1c[nH]c2ccccc12)C(=O)N[C@@H](CC(C)C)C(=O)N[C@@H](CC(C)C)C(=O)N[C@@H](C)C(=O)N[C@@H](CCC(N)=O)C(=O)N[C@@H](CCCCN)C(=O)N1CCC[C@H]1C(=O)N[C@@H](CO)C(=O)N[C@@H](CO)C(=O)NCC(=O)N[C@@H](C)C(=O)N1CCC[C@H]1C(=O)N1CCC[C@H]1C(=O)N1CCC[C@H]1C(=O)N[C@@H](CO)C(=O)O)C(C)C)[C@@H](C)CC
B3: AT620 (peptide)
peptide: EGTFISDYSIAEDKIK(C16 diacid)QQDFVNWLLAQKPSSGAPPPS-OH
modifications: N-terminus assumed
SMILES: CC[C@H](C)[C@H](NC(=O)[C@H](CO)NC(=O)[C@H](Cc1ccc(O)cc1)NC(=O)[C@H](CC(=O)O)NC(=O)[C@H](CO)NC(=O)[C@@H](NC(=O)[C@H](Cc1ccccc1)NC(=O)[C@@H](NC(=O)CNC(=O)[C@@H](N)CCC(=O)O)[C@@H](C)O)[C@@H](C)CC)C(=O)N[C@@H](C)C(=O)N[C@@H](CCC(=O)O)C(=O)N[C@@H](CC(=O)O)C(=O)N[C@@H](CCCCN)C(=O)N[C@H](C(=O)N[C@@H](CCCCNC(=O)CCCCCCCCCCCCCCC(=O)O)C(=O)N[C@@H](CCC(N)=O)C(=O)N[C@@H](CCC(N)=O)C(=O)N[C@@H](CC(=O)O)C(=O)N[C@@H](Cc1ccccc1)C(=O)N[C@H](C(=O)N[C@@H](CC(N)=O)C(=O)N[C@@H](Cc1c[nH]c2ccccc12)C(=O)N[C@@H](CC(C)C)C(=O)N[C@@H](CC(C)C)C(=O)N[C@@H](C)C(=O)N[C@@H](CCC(N)=O)C(=O)N[C@@H](CCCCN)C(=O)N1CCC[C@H]1C(=O)N[C@@H](CO)C(=O)N[C@@H](CO)C(=O)NCC(=O)N[C@@H](C)C(=O)N1CCC[C@H]1C(=O)N1CCC[C@H]1C(=O)N1CCC[C@H]1C(=O)N[C@@H](CO)C(=O)O)C(C)C)[C@@H](C)CC
B4: AT622 (peptide)
peptide: EGTFISDYSIASDKIK(C16 diacid)QQDFVNWLLAQKPSSGAPPPS-OH
modifications: N-terminus assumed
SMILES: CC[C@H](C)[C@H](NC(=O)[C@H](CO)NC(=O)[C@H](Cc1ccc(O)cc1)NC(=O)[C@H](CC(=O)O)NC(=O)[C@H](CO)NC(=O)[C@@H](NC(=O)[C@H](Cc1ccccc1)NC(=O)[C@@H](NC(=O)CNC(=O)[C@@H](N)CCC(=O)O)[C@@H](C)O)[C@@H](C)CC)C(=O)N[C@@H](C)C(=O)N[C@@H](CO)C(=O)N[C@@H](CC(=O)O)C(=O)N[C@@H](CCCCN)C(=O)N[C@H](C(=O)N[C@@H](CCCCNC(=O)CCCCCCCCCCCCCCC(=O)O)C(=O)N[C@@H](CCC(N)=O)C(=O)N[C@@H](CCC(N)=O)C(=O)N[C@@H](CC(=O)O)C(=O)N[C@@H](Cc1ccccc1)C(=O)N[C@H](C(=O)N[C@@H](CC(N)=O)C(=O)N[C@@H](Cc1c[nH]c2ccccc12)C(=O)N[C@@H](CC(C)C)C(=O)N[C@@H](CC(C)C)C(=O)N[C@@H](C)C(=O)N[C@@H](CCC(N)=O)C(=O)N[C@@H](CCCCN)C(=O)N1CCC[C@H]1C(=O)N[C@@H](CO)C(=O)N[C@@H](CO)C(=O)NCC(=O)N[C@@H](C)C(=O)N1CCC[C@H]1C(=O)N1CCC[C@H]1C(=O)N1CCC[C@H]1C(=O)N[C@@H](CO)C(=O)O)C(C)C)[C@@H](C)CC
B5: AT621 (peptide)
peptide: EGTFISDYSIAKDKIK(C16 diacid)QQDFVNWLLAQKPSSGAPPPS-OH
modifications: N-terminus assumed
SMILES: CC[C@H](C)[C@H](NC(=O)[C@H](CO)NC(=O)[C@H](Cc1ccc(O)cc1)NC(=O)[C@H](CC(=O)O)NC(=O)[C@H](CO)NC(=O)[C@@H](NC(=O)[C@H](Cc1ccccc1)NC(=O)[C@@H](NC(=O)CNC(=O)[C@@H](N)CCC(=O)O)[C@@H](C)O)[C@@H](C)CC)C(=O)N[C@@H](C)C(=O)N[C@@H](CCCCN)C(=O)N[C@@H](CC(=O)O)C(=O)N[C@@H](CCCCN)C(=O)N[C@H](C(=O)N[C@@H](CCCCNC(=O)CCCCCCCCCCCCCCC(=O)O)C(=O)N[C@@H](CCC(N)=O)C(=O)N[C@@H](CCC(N)=O)C(=O)N[C@@H](CC(=O)O)C(=O)N[C@@H](Cc1ccccc1)C(=O)N[C@H](C(=O)N[C@@H](CC(N)=O)C(=O)N[C@@H](Cc1c[nH]c2ccccc12)C(=O)N[C@@H](CC(C)C)C(=O)N[C@@H](CC(C)C)C(=O)N[C@@H](C)C(=O)N[C@@H](CCC(N)=O)C(=O)N[C@@H](CCCCN)C(=O)N1CCC[C@H]1C(=O)N[C@@H](CO)C(=O)N[C@@H](CO)C(=O)NCC(=O)N[C@@H](C)C(=O)N1CCC[C@H]1C(=O)N1CCC[C@H]1C(=O)N1CCC[C@H]1C(=O)N[C@@H](CO)C(=O)O)C(C)C)[C@@H](C)CC

What follows are binders tested against T1, human GIP receptor (assay: cell-based or functional assay).

In order of falling “cAMP agonism % Emax” value:
1. B4  14%
2. B1  0%
3. B2  0%
4. B3  0%
5. B5  0%

In order of falling “cAMP antagonism” value:
1. B3  31.6 nM
2. B4  31.6 nM
3. B2  3.98 nM
4. B1  2.19 nM
5. B5  1.36 nM

In order of rising “cAMP antagonism % inhib” value:
1. B4  77%
2. B2  82%
3. B3  83%
4. B1  87%
5. B5  93%

In order of falling “cAMP antagonism pIC50” value:
1. B5  8.9
2. B1  8.7
3. B2  8.4
4. B3  7.5
5. B4  7.5
